The test deals with T1, HLA-A*02:01 (human).
T1 construct: MHC monomers first loaded with a UV-sensitive peptide (not identified) that is cleaved by UV light and exchanged for the test peptide; captured on streptavidin plates, detected with anti-β2m; also called peptide-receptive MHC molecules; MHC class I
The experiment in a line: UV-ligand exchange + anti-b2m ELISA; peptide exchange yield grade (+ >=10%, ++ >=20%, +++ >=50, ++++ >=75%). An excerpt:
Candidate peptides for T cell based therapies according to the present invention were further tested for their MHC binding capacity (affinity). The individual peptide-MHC complexes were produced by UV-ligand exchange, where a UV-sensitive peptide is cleaved upon UV-irradiation, and exchanged with the peptide of interest as analyzed. Only peptide candidates that can effectively bind and stabilize the peptide-receptive MHC molecules prevent dissociation of the MHC complexes. To determine the yield of the exchange reaction, an ELISA was performed based on the detection of the light chain (β2m) of stabilized MHC complexes. The assay was performed as generally described in Rodenko et al. (Rodenko et al., 2006).
96 well MAXISorp plates (NUNC) were coated over night with 2 ug/ml streptavidin in PBS at room temperature, washed 4× and blocked for 1h at 37° C. in 2% BSA containing blocking buffer. Refolded HLA-A*02:01/MLA-001 monomers served as standards, covering the range of 15-500 ng/ml. Peptide-MHC monomers of the UV-exchange reaction were diluted 100 fold in blocking buffer. Samples were incubated for 1 h at 37° C., washed four times, incubated with 2 ug/ml HRP conjugated anti-β2m for 1h at 37° C., washed again and detected with TMB solution that is stopped with […]. Absorption was measured at 450 nm. […]
A general note: ELISA stands for enzyme-linked immunosorbent assay.

For SLTALRLLL (source gene KBTBD11) [SLTALRLLL (SEQ ID NO: 70)], the peptide exchange yield lay in the range of 20 to 50%.

The values are drawn from patent US20160287687A1 (IMMATICS BIOTECHNOLOGIES, published 2016).
